Measurements: patent US20140271457A1 (AbbVie / Abbott, published 2014)
Where a chain is given by its changes, count along the chain named.

B1: DVD3088 (bispecific antibody, IgG1)
VH: EVQLVQSGAEVKKPGASVKVSCKASGYTFTTYGVSWVRQAPGQGLEWMGEIYPGNYNTYYNEKFRGRVTMTTDTSTSTAYMELRSLRSDDTAVYYCARWRTSYFSDYGYFDYWGQGTTVTVSSGGGGSGGGGSEVQLVESGGGLVQPGGSLRLSCAASGFTFSNYGVTWVRQAPGKGLEWVSMIWADGSTHYASSVKGRFTISRDNSKNTLYLQMNSLRAEDTAVYYCAREWQHGPVAYWGQGTLVTVSS
VL: DVVMTQSPLSLPVTLGQPASISCRSSQSLVHSHGNTYLHWYQQRPGQSPRLLIYTVSNRFSGVPDRFSGSGSGTDFTLKISRVEAEDVGVYYCSQSTHVPYTFGGGTKVEIKRGGSGGGGSGDIQMTQSPSSLSASVGDRVTITCRASQLVSSAVAWYQQKPGKAPKLLIYWASARHTGVPSRFSGSGSGTDFTLTISSLQPEDFATYYCQQHYKTPFTFGQGTKLEIKR
B2: DVD3098 (bispecific antibody, IgG1)
VH: B1 VH with T168E, M183G, S194D, S195T, G198S
VL: B1 VL with R146K, A175T, R176L, K215R
B3: DVD3013 (bispecific antibody, IgG1)
VH: EVTLRESGPGLVKPTQTLTLTCTLYGFSLSTSDMGVDWIRQPPGKGLEWLAHIWWDDVKRYNPALKSRLTISKDTSKNQVVLKLTSVDPVDTATYYCARTVSSGYIYYAMDYWGQGTLVTVSSGGGGSGGGGSEVQLVQSGAEVKKPGASVKVSCKASGYTFNNYGIIWVRQAPGQGLEWMGWINTYTGKPTYAQKFQGRVTMTTDTSTSTAYMELSSLRSEDTAVYYCARKLFNTVAVTDNAMDYWGQGTTVTVSS
VL: DIQMTQSPSSLSASVGDRVTISCRASQDIRNYLNWYQQKPGKAPKLLIFYTSKLHSGVPSRFSGSGSGTDYTLTISSLQPEDIATYYCQQGLTPPLTFGGGTKVEIKRGGSGGGGSGDIQMTQSPSSLSASVGDRVTITCRASQDIENYLNWYQQKPGKAPKLLIYYTSRLQSGVPSRFSGSGSGTDFTLTISSLQPEDFATYFCQQGNTQPPTFGQGTKLEIKR
B4: DVD3089 (bispecific antibody, IgG1)
VH: EVQLVQSGAEVKKPGASVKVSCKASGYTFTTYGVSWVRQAPGQGLEWMGEIYPGNYNTYYNEKFRGRVTMTTDTSTSTAYMELRSLRSDDTAVYYCARWRTSYFSDYGYFDYWGQGTTVTVSSASTKGPEVQLVESGGGLVQPGGSLRLSCAASGFTFSNYGVTWVRQAPGKGLEWVSMIWADGSTHYASSVKGRFTISRDNSKNTLYLQMNSLRAEDTAVYYCAREWQHGPVAYWGQGTLVTVSS
VL: DVVMTQSPLSLPVTLGQPASISCRSSQSLVHSHGNTYLHWYQQRPGQSPRLLIYTVSNRFSGVPDRFSGSGSGTDFTLKISRVEAEDVGVYYCSQSTHVPYTFGGGTKVEIKRTVAAPDIQMTQSPSSLSASVGDRVTITCRASQLVSSAVAWYQQKPGKAPKLLIYWASARHTGVPSRFSGSGSGTDFTLTISSLQPEDFATYYCQQHYKTPFTFGQGTKLEIKR
B5: DVD3091 (bispecific antibody, IgG1)
VH: B4 VH
VL: DVVMTQSPLSLPVTLGQPASISCRSSQSLVHSHGNTYLHWYQQRPGQSPRLLIYTVSNRFSGVPDRFSGSGSGTDFTLKISRVEAEDVGVYYCSQSTHVPYTFGGGTKVEIKRTVAAPSVFIFPPDIQMTQSPSSLSASVGDRVTITCRASQLVSSAVAWYQQKPGKAPKLLIYWASARHTGVPSRFSGSGSGTDFTLTISSLQPEDFATYYCQQHYKTPFTFGQGTKLEIKR
B6: DVD3099 (bispecific antibody, IgG1)
VH: B4 VH with T164E, M179G, S190D, S191T, G194S
VL: B4 VL with R142K, A171T, R172L, K211R
B7: DVD3014 (bispecific antibody, IgG1)
VH: EVTLRESGPGLVKPTQTLTLTCTLYGFSLSTSDMGVDWIRQPPGKGLEWLAHIWWDDVKRYNPALKSRLTISKDTSKNQVVLKLTSVDPVDTATYYCARTVSSGYIYYAMDYWGQGTLVTVSSASTKGPEVQLVQSGAEVKKPGASVKVSCKASGYTFNNYGIIWVRQAPGQGLEWMGWINTYTGKPTYAQKFQGRVTMTTDTSTSTAYMELSSLRSEDTAVYYCARKLFNTVAVTDNAMDYWGQGTTVTVSS
VL: DIQMTQSPSSLSASVGDRVTISCRASQDIRNYLNWYQQKPGKAPKLLIFYTSKLHSGVPSRFSGSGSGTDYTLTISSLQPEDIATYYCQQGLTPPLTFGGGTKVEIKRTVAAPDIQMTQSPSSLSASVGDRVTITCRASQDIENYLNWYQQKPGKAPKLLIYYTSRLQSGVPSRFSGSGSGTDFTLTISSLQPEDFATYFCQQGNTQPPTFGQGTKLEIKR
B8: DVD3017 (bispecific antibody, IgG1)
VH: EVTLRESGPGLVKPTQTLTLTCTLYGFSLSTSDMGVDWIRQPPGKGLEWLAHIWWDDVKRYNPALKSRLTISKDTSKNQVVLKLTSVDPVDTATYYCARTVSSGYIYYAMDYWGQGTLVTVSSASTKGPSVFPLAPEVQLVQSGAEVKKPGASVKVSCKASGYTFNNYGIIWVRQAPGQGLEWMGWINTYTGKPTYAQKFQGRVTMTTDTSTSTAYMELSSLRSEDTAVYYCARKLFNTVAVTDNAMDYWGQGTTVTVSS
VL: B7 VL
B9: DVD3016 (bispecific antibody, IgG1)
VH: B7 VH
VL: DIQMTQSPSSLSASVGDRVTISCRASQDIRNYLNWYQQKPGKAPKLLIFYTSKLHSGVPSRFSGSGSGTDYTLTISSLQPEDIATYYCQQGLTPPLTFGGGTKVEIKRTVAAPSVFIFPPDIQMTQSPSSLSASVGDRVTITCRASQDIENYLNWYQQKPGKAPKLLIYYTSRLQSGVPSRFSGSGSGTDFTLTISSLQPEDFATYFCQQGNTQPPTFGQGTKLEIKR

Biological target: Recombinant Human TNF-α/TNFSF1A (human, UniProt P01375 77-233)
Sequence (P01375 77-233 limits assumed): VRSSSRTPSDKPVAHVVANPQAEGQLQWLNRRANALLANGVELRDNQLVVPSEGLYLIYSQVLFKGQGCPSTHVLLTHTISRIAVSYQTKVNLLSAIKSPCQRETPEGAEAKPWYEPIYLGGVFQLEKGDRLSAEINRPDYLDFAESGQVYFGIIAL
Assay: cell-based or functional assay

C-Terminal VD huTNFα Neutralization Assay IC50 [nM]	N-Terminal VD huTNFα Neutralization Assay IC50 [pM]	Binder
0.472	–	B1
–	12	B2
0.229	–	B3
0.52	–	B4
0.192	–	B5
–	3	B6
0.49	–	B7
0.234	–	B8
0.148	–	B9
